How the values were obtained:
[1] = molecular target: GROWTH-REGULATING FACTOR 4 (GRF4), yeast hybrid fusion (wheat); assay: yeast three-hybrid; quantitative alpha-gal Y3H assay; BD and AD fusions with a third protein expressed or not expressed; n = 12
[2] = molecular target: RHT1-GRAS (truncated DELLA protein carrying only the C-terminal GRAS domain), yeast hybrid fusion (wheat); assay: as above

Row | fold stronger interaction than between PLATZ and DELLA [1] [fold] | percent reduction of the PLATZ1-DELLA interaction with GRF4 as the third protein [2] [%] | Substance
1 | > 20 | – | RHT1-GRAS (truncated DELLA protein carrying only the C-terminal GRAS domain), yeast hybrid fusion (domain or fragment)
2 | – | 74 | GROWTH-REGULATING FACTOR 4 (GRF4), yeast hybrid fusion (natural protein)

— PMC10175819
